One data set deals with T1, GST-Pur-alpha (Homo sapiens, UniProt Q00577 SEQ:1-322).
T1 sequence: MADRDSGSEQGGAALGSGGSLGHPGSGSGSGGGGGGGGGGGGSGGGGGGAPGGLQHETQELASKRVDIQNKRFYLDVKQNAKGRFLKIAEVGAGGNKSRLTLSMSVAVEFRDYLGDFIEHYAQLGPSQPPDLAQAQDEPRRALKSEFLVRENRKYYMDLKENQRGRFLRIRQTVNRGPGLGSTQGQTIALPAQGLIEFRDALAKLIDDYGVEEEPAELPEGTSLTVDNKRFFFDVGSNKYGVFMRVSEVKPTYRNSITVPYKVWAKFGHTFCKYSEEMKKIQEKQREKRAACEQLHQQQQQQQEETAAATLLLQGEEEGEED
The data set can be described thus: EMSA; 7.5 pmol; Tat at 1:1 enhances binding nearly 10-fold. The following applies: tags: N-terminal GST; label: 32P end. The protocol: FIG. 21A. Specificity of binding of Purα to the JCV upTAR element. The different oligonucleotide probes used for the indicated reactions are: JCV+, the purine-rich single strand of the upTAR element; JCV ds, the double-stranded upTAR element, only the pyrimidine-rich strand of which is labeled; JCV−, the pyrimidine-rich strand of the upTAR element.
8.1.2. Binding of PURα to the JVC upTAR PUR Element in the Presence or Absence of Tat All gel shifts were performed as described in Section 6.1.2. using ^32P end-labeled 24-mer oligonucleotide probe representing a dimer of the upTAR element. The purine-rich strand of this oligonucleotide is: 5'-[…]-3' SEQ ID NO:51. For both panels A and B, all Tat, Purα and Purα deletion mutant proteins were employed GST fusion proteins prepared by purification on glutathione agarose columns as described for FIG. 20 and eluted with glutathione. In both panels for lanes labeled +, 7.5 pmoles of each indicated protein were used. Specificity of binding of Purα to the JCV upTAR element. The different oligonucleotide probes used for the indicated reactions are: JCV+, the purine-rich single strand of the upTAR element; JCV ds, the double-stranded upTAR element, only the pyrimidine-rich strand of which is labeled; JCV−, the pyrimidine-rich strand of the upTAR element. Effect of Tat upon biding of a series of Purα deletion mutants to the JCV upTAR element. […]
Background: In EMSA bound probe runs differently from free probe, usually more slowly.

The target of a further data set is GST-Tat (HIV-1, UniProt P04608 P04608:1-86). Put plainly: EMSA; Tat stated not to bind the upTAR element itself. The following applies: tags: GST; label: 32P end.

B1: JCV+ (upTAR purine-rich strand dimer) (ssDNA)
DNA: GGAGGCGGAGGCGGAGGCGGAGGC
With B1, the binding result is reported as “binds” in the data set with GST-Pur-alpha and “no binding” with GST-Tat.

The record behind these values is patent US5756684, “Cloning and expression of PUR protein” (Mount Sinai School of Medicine of the City of New York).
